Measured values taken from article PMC9352680, “A comprehensive thermodynamic model for RNA binding by the Saccharomyces cerevisiae Pumilio protein PUF4”.

T1: PUF4 RNA-binding domain (Saccharomyces cerevisiae, UniProt P25339 537-888)
T1 sequence: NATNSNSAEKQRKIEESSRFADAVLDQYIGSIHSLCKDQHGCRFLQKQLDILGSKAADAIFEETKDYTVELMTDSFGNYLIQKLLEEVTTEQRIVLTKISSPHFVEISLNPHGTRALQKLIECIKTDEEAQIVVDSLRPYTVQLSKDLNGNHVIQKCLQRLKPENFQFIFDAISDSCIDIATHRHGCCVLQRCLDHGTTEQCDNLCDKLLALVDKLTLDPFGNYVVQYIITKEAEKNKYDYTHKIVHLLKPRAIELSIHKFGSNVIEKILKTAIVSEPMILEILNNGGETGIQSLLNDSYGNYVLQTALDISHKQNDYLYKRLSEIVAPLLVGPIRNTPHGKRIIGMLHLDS


Target: T1, PUF4 RNA-binding domain
Assay: Mg; RNA-MaP; 20 mM Na-HEPES pH 7.4, 30 mM KOAc, 0.75 mM MgCl2, 0.1% Tween-20, 5% glycerol, 0.1 mg/mL BSA, 2 mM DTT; 25 C; 0.0125-409.6 nM protein
Conditions: tags: N-His6-TEV cleaved; C-SNAP kept, Cy3B-labelled; label: tethered on chip by stalled RNA polymerase

Binder	Kd [nM]
UCUCUUCGUGUAUAUAAAUCUCUU (ssRNA) [Id_ii_S1_P3E.2_K3.1_C3.2_[T-1G]_H3.1_A3.1_F3.1_T3.2_[T9A]]	11.9
UCUCUUCGUGUAUAUAUAUCUCUU (ssRNA) [Id_ii_S1_P3E.2_K3.1_C3.2_[T-1G]_H3.1_A3.1_F3.1_T3.2]	5.37
UCUCUUAUUGUAUAUAAUUCUCUU (ssRNA) [Id_ii_S1_P3E.2_K3.1_C3.2_[C-2A]_H3.1_A3.1_F3.1_T3.2_[T9A]_[A10T]]	12.2
UCUCUUCCUGUAUAUAUAUCUCUU (ssRNA) [Id_ii_S1_P3E.2_K3.1_C3.2_[T-1C]_H3.1_A3.1_F3.1_T3.2]	3.76
UCUCUUCCUGUAUAUACAUCUCUU (ssRNA) [Id_ii_S1_P3E.2_K3.1_C3.2_[T-1C]_H3.1_A3.1_F3.1_T3.2_[T9C]]	17.7
UCUCUUAUUGUAUAUAGUUCUCUU (ssRNA) [Id_ii_S1_P3E.2_K3.1_C3.2_[C-2A]_H3.1_A3.1_F3.1_T3.2_[T9G]_[A10T]]	6.25
UCUCUUAUUGUAUAUAAAUCUCUU (ssRNA) [Id_ii_S1_P3E.2_K3.1_C3.2_[C-2A]_H3.1_A3.1_F3.1_T3.2_[T9A]]	13.9
UCUCUUAUUGUAUAUAACUCUCUU (ssRNA) [Id_ii_S1_P3E.2_K3.1_C3.2_[C-2A]_H3.1_A3.1_F3.1_T3.2_[T9A]_[A10C]]	12.9
UCUCUUCCUGUAUAUACUUCUCUU (ssRNA) [Id_ii_S1_P3E.2_K3.1_C3.2_[T-1C]_H3.1_A3.1_F3.1_T3.2_[T9C]_[A10T]]	6.95
UCUCUUAAUGUAUAUAAAUCUCUU (ssRNA) [Id_ii_S1_P3E.2_K3.1_C3.2_[C-2A]_[T-1A]_H3.1_A3.1_F3.1_T3.2_[T9A]]	20.8
UCUCUUCCUGUAUAUACCUCUCUU (ssRNA) [Id_ii_S1_P3E.2_K3.1_C3.2_[T-1C]_H3.1_A3.1_F3.1_T3.2_[T9C]_[A10C]]	24.3
UCUCUUAAUGUAUAUACCUCUCUU (ssRNA) [Id_ii_S1_P3E.2_K3.1_C3.2_[C-2A]_[T-1A]_H3.1_A3.1_F3.1_T3.2_[T9C]_[A10C]]	16.5
UCUCUUCCUGUAUAUAAUUCUCUU (ssRNA) [Id_ii_S1_P3E.2_K3.1_C3.2_[T-1C]_H3.1_A3.1_F3.1_T3.2_[T9A]_[A10T]]	5.34
UCUCUUUUUGUAUUAUCUCUU (ssRNA) [Ib_S1_P4E.1_K4.1_C4.1_H4.1_[G2T]_[A4G]_A4.1_F4.1_T4.1]	25.7
UCUCUUCGUGUAUAUACCUCUCUU (ssRNA) [Id_ii_S1_P3E.2_K3.1_C3.2_[T-1G]_H3.1_A3.1_F3.1_T3.2_[T9C]_[A10C]]	17.5
UCUCUUACUGUAUAUAACUCUCUU (ssRNA) [Id_ii_S1_P3E.2_K3.1_C3.2_[C-2A]_[T-1C]_H3.1_A3.1_F3.1_T3.2_[T9A]_[A10C]]	26.7
UCUCUUCCUGUAUAUAUUUCUCUU (ssRNA) [Id_ii_S1_P3E.2_K3.1_C3.2_[T-1C]_H3.1_A3.1_F3.1_T3.2_[A10T]]	5.94
UCUCUUAAUGUAUAUAUUUCUCUU (ssRNA) [Id_ii_S1_P3E.2_K3.1_C3.2_[C-2A]_[T-1A]_H3.1_A3.1_F3.1_T3.2_[A10T]]	13.4
UCUCUUCAUGUAUAUAAGUCUCUU (ssRNA) [Id_ii_S1_P3E.2_K3.1_C3.2_[T-1A]_H3.1_A3.1_F3.1_T3.2_[T9A]_[A10G]]	6.69
UCUCUUCAUGUAUAUAAUUCUCUU (ssRNA) [Id_ii_S1_P3E.2_K3.1_C3.2_[T-1A]_H3.1_A3.1_F3.1_T3.2_[T9A]_[A10T]]	11.6
UCUCUUUGCGUAUUAUCUCUU (ssRNA) [Ib_S1_P4E.1_K4.1_C4.1_H4.1_[T3C]_[A4G]_A4.1_F4.1_T4.1]	> 2300

Binder	Kd [nM]
UCUCUUCGUGUAUAUAUCUCUCUU (ssRNA) [Id_ii_S1_P3E.2_K3.1_C3.2_[T-1G]_H3.1_A3.1_F3.1_T3.2_[A10C]]	7.58
UCUCUUCAUGUAUAUACCUCUCUU (ssRNA) [Id_ii_S1_P3E.2_K3.1_C3.2_[T-1A]_H3.1_A3.1_F3.1_T3.2_[T9C]_[A10C]]	17.7
UCUCUUAUUGUAUAUACGUCUCUU (ssRNA) [Id_ii_S1_P3E.2_K3.1_C3.2_[C-2A]_H3.1_A3.1_F3.1_T3.2_[T9C]_[A10G]]	26.9
UCUCUUCGUGUAUAUAGUUCUCUU (ssRNA) [Id_ii_S1_P3E.2_K3.1_C3.2_[T-1G]_H3.1_A3.1_F3.1_T3.2_[T9G]_[A10T]]	3.77
UCUCUUAUUGUAUAUAUUUCUCUU (ssRNA) [Id_ii_S1_P3E.2_K3.1_C3.2_[C-2A]_H3.1_A3.1_F3.1_T3.2_[A10T]]	9.49
UCUCUUCGUGUAUAUAGGUCUCUU (ssRNA) [Id_ii_S1_P3E.2_K3.1_C3.2_[T-1G]_H3.1_A3.1_F3.1_T3.2_[T9G]_[A10G]]	9.62
UCUCUUAUUGUAUAUACUUCUCUU (ssRNA) [Id_ii_S1_P3E.2_K3.1_C3.2_[C-2A]_H3.1_A3.1_F3.1_T3.2_[T9C]_[A10T]]	10.3
UCUCUUAUUGUAUAUACCUCUCUU (ssRNA) [Id_ii_S1_P3E.2_K3.1_C3.2_[C-2A]_H3.1_A3.1_F3.1_T3.2_[T9C]_[A10C]]	17.6
UCUCUUUGUAUCUUAUCUCUU (ssRNA) [Ic_S1_P4E.1_K4.1_C4.1_H4.1_A4.1_[A6C]_F4.1_T4.1]	4.1
UCUCUUCGUGUAUAUAAUUCUCUU (ssRNA) [Id_ii_S1_P3E.2_K3.1_C3.2_[T-1G]_H3.1_A3.1_F3.1_T3.2_[T9A]_[A10T]]	8.53
UCUCUUCGUGUAUAUAUUUCUCUU (ssRNA) [Id_ii_S1_P3E.2_K3.1_C3.2_[T-1G]_H3.1_A3.1_F3.1_T3.2_[A10T]]	8.56
UCUCUUCCUGUAUAUAAGUCUCUU (ssRNA) [Id_ii_S1_P3E.2_K3.1_C3.2_[T-1C]_H3.1_A3.1_F3.1_T3.2_[T9A]_[A10G]]	12.9
UCUCUUACUGUAUAUAAAUCUCUU (ssRNA) [Id_ii_S1_P3E.2_K3.1_C3.2_[C-2A]_[T-1C]_H3.1_A3.1_F3.1_T3.2_[T9A]]	16.3
UCUCUUAUUGUAUAUAUAUCUCUU (ssRNA) [Id_ii_S1_P3E.2_K3.1_C3.2_[C-2A]_H3.1_A3.1_F3.1_T3.2]	4.87
UCUCUUUAUGUAUUAUCUCUU (ssRNA) [Ib_S1_P4E.1_K4.1_C4.1_H4.1_[G2A]_[A4G]_A4.1_F4.1_T4.1]	36
UCUCUUAAUGUAUAUAAUUCUCUU (ssRNA) [Id_ii_S1_P3E.2_K3.1_C3.2_[C-2A]_[T-1A]_H3.1_A3.1_F3.1_T3.2_[T9A]_[A10T]]	8.64
UCUCUUCUUGUAUAUAGCUCUCUU (ssRNA) [Id_ii_S1_P3E.2_K3.1_C3.2_H3.1_A3.1_F3.1_T3.2_[T9G]_[A10C]]	4.12
UCUCUUCCUGUAUAUAACUCUCUU (ssRNA) [Id_ii_S1_P3E.2_K3.1_C3.2_[T-1C]_H3.1_A3.1_F3.1_T3.2_[T9A]_[A10C]]	6.69
UCUCUUUUUUUAUUAUCUCUU (ssRNA) [Ib_S1_P4E.1_K4.1_C4.1_H4.1_[G2T]_[A4T]_A4.1_F4.1_T4.1]	> 2300
UCUCUUUAUCUAUUAUCUCUU (ssRNA) [Ib_S1_P4E.1_K4.1_C4.1_H4.1_[G2A]_[A4C]_A4.1_F4.1_T4.1]	> 2300
UCUCUUACUGUAUAUAUUUCUCUU (ssRNA) [Id_ii_S1_P3E.2_K3.1_C3.2_[C-2A]_[T-1C]_H3.1_A3.1_F3.1_T3.2_[A10T]]	10.8

Binder	Kd [nM]
UCUCUUCCUGUAUAUACGUCUCUU (ssRNA) [Id_ii_S1_P3E.2_K3.1_C3.2_[T-1C]_H3.1_A3.1_F3.1_T3.2_[T9C]_[A10G]]	17.4
UCUCUUCAUGUAUAUACUUCUCUU (ssRNA) [Id_ii_S1_P3E.2_K3.1_C3.2_[T-1A]_H3.1_A3.1_F3.1_T3.2_[T9C]_[A10T]]	13.2
UCUCUUCAUGUAUAUAACUCUCUU (ssRNA) [Id_ii_S1_P3E.2_K3.1_C3.2_[T-1A]_H3.1_A3.1_F3.1_T3.2_[T9A]_[A10C]]	16.9
UCUCUUAUUGUAUAUAUCUCUCUU (ssRNA) [Id_ii_S1_P3E.2_K3.1_C3.2_[C-2A]_H3.1_A3.1_F3.1_T3.2_[A10C]]	8.52
UCUCUUAAUGUAUAUAUGUCUCUU (ssRNA) [Id_ii_S1_P3E.2_K3.1_C3.2_[C-2A]_[T-1A]_H3.1_A3.1_F3.1_T3.2_[A10G]]	12.7
UCUCUUACUGUAUAUACAUCUCUU (ssRNA) [Id_ii_S1_P3E.2_K3.1_C3.2_[C-2A]_[T-1C]_H3.1_A3.1_F3.1_T3.2_[T9C]]	22.8
UCUCUUACUGUAUAUAUGUCUCUU (ssRNA) [Id_ii_S1_P3E.2_K3.1_C3.2_[C-2A]_[T-1C]_H3.1_A3.1_F3.1_T3.2_[A10G]]	17.2
UCUCUUCAUGUAUAUAUUUCUCUU (ssRNA) [Id_ii_S1_P3E.2_K3.1_C3.2_[T-1A]_H3.1_A3.1_F3.1_T3.2_[A10T]]	8.07
UCUCUUCAUGUAUAUAGCUCUCUU (ssRNA) [Id_ii_S1_P3E.2_K3.1_C3.2_[T-1A]_H3.1_A3.1_F3.1_T3.2_[T9G]_[A10C]]	5.33
UCUCUUCAUGUAUAUAUCUCUCUU (ssRNA) [Id_ii_S1_P3E.2_K3.1_C3.2_[T-1A]_H3.1_A3.1_F3.1_T3.2_[A10C]]	8.05
UCUCUUAUUGUAUAUAGCUCUCUU (ssRNA) [Id_ii_S1_P3E.2_K3.1_C3.2_[C-2A]_H3.1_A3.1_F3.1_T3.2_[T9G]_[A10C]]	12.1
UCUCUUCAUGUAUAUAGUUCUCUU (ssRNA) [Id_ii_S1_P3E.2_K3.1_C3.2_[T-1A]_H3.1_A3.1_F3.1_T3.2_[T9G]_[A10T]]	5.84
UCUCUUAAUGUAUAUAUCUCUCUU (ssRNA) [Id_ii_S1_P3E.2_K3.1_C3.2_[C-2A]_[T-1A]_H3.1_A3.1_F3.1_T3.2_[A10C]]	10.4
UCUCUUACUGUAUAUAUCUCUCUU (ssRNA) [Id_ii_S1_P3E.2_K3.1_C3.2_[C-2A]_[T-1C]_H3.1_A3.1_F3.1_T3.2_[A10C]]	9.47
UCUCUUCCUGUAUAUAGUUCUCUU (ssRNA) [Id_ii_S1_P3E.2_K3.1_C3.2_[T-1C]_H3.1_A3.1_F3.1_T3.2_[T9G]_[A10T]]	4.07
UCUCUUCAUGUAUAUAAAUCUCUU (ssRNA) [Id_ii_S1_P3E.2_K3.1_C3.2_[T-1A]_H3.1_A3.1_F3.1_T3.2_[T9A]]	13.1
UCUCUUCGUACAUUAUCUCUU (ssRNA) [Ib_S1_P4E.1_K4.1_C4.1_H4.1_[T1C]_A4.1_[T5C]_F4.1_T4.1]	16.8
UCUCUUCCUGUAUAUAUCUCUCUU (ssRNA) [Id_ii_S1_P3E.2_K3.1_C3.2_[T-1C]_H3.1_A3.1_F3.1_T3.2_[A10C]]	4.74
UCUCUUAUUGUAUAUAUGUCUCUU (ssRNA) [Id_ii_S1_P3E.2_K3.1_C3.2_[C-2A]_H3.1_A3.1_F3.1_T3.2_[A10G]]	12.3
UCUCUUCCUGUAUAUAUGUCUCUU (ssRNA) [Id_ii_S1_P3E.2_K3.1_C3.2_[T-1C]_H3.1_A3.1_F3.1_T3.2_[A10G]]	7.59
UCUCUUACUGUAUAUACUUCUCUU (ssRNA) [Id_ii_S1_P3E.2_K3.1_C3.2_[C-2A]_[T-1C]_H3.1_A3.1_F3.1_T3.2_[T9C]_[A10T]]	15
